Assay results: paper PMC6484772, “S100A3 a partner protein regulating the stability/activity of RARα and PML-RARα in cellular models of breast/lung cancer and acute myeloid leukemia” (Oncogene, 2018)

Target: T1, GST-RARα (UniProt P10276 1-462)
T1 construct: full-length RARα; also called GST-tagged full-length RARα; source: GST-tagged recombinant protein
T1 sequence (looked up): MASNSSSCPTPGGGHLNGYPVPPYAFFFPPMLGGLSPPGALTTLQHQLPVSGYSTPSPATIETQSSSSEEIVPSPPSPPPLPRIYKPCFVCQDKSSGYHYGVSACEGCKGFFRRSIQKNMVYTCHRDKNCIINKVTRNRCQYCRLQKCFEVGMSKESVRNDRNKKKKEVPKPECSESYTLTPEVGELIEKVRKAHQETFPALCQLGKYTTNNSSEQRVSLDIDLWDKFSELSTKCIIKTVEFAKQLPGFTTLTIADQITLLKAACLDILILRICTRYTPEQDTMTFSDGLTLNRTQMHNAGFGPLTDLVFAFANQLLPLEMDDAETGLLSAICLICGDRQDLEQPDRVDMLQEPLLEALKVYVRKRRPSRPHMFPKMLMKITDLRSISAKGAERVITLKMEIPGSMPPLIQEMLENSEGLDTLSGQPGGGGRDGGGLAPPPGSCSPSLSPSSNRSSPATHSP
Assay: far-Western, overlay or dot blot; S100A3 immunoprecipitated from extracts of transfected COS-7 cells with anti-S100A3 beads, resolved and blotted; probed with GST-tagged RARα recombinant proteins; developed with an anti-GST antibody
Settings: both partners purified

binding result: binds
B1: S100A3 (over-expressed in COS-7) (natural protein, human, UniProt P33764 1-101, looked up)
chain: MARPLEQAVAAIVCTFQEYAGRCGDKYKLCQAELKELLQKELATWTPTEFRECDYNKFMSVLDTNKDCEVDFVEYVRSLACLCLYCHEYFKDCPSEPPCSQ
notes: protein S100-A3; source: COS-7, transiently transfected (pcDNA3 expression plasmid for the S100A3 cDNA), in cell extract; immunoprecipitated with anti-S100A3 for the far-western
